Laboratory results from IntAct's records for PubMed 19379695.

B1: E3 ubiquitin-protein ligase SMURF2 (Mus musculus), A2A5Z6 (parent)
chain: MSNPGGRRNGPVKLRLTVLCAKNLVKKDFFRLPDPFAKVVVDGSGQCHSTDTVKNTLDPKWNQHYDLYIGKSDSVTISVWNHKKIHKKQGAGFLGCVRLLSNAINRLKDTGYQRLDLCKLGPNDNDTVRGQIVVSLQSRDRIGTGGQVVDCSRLFDNDLPDGWEERRTASGRIQYLNHITRTTQWERPTRPASEYSSPGRPLSCFVDENTPITGTNGATCGHSSDPRLAERRVRSQRHRNYMSRTHLHTPPDLPEGYEQRTTQQGQVYFLHTQTGVSTWHDPRVPRDLSNINCEELGPLPPGWEIRNTATGRVYFVDHNNRTTQFTDPRLSANLHLVLNRQNQLKDQQQQQVVPLCPDDTECLTVPRYKRDLVQKLKILRQELSQQQPQAGHCRIEVSREEIFEESYRQVMKMRPKDLWKRLMIKFRGEEGLDYGGVAREWLYLLSHEMLNPYYGLFQYSRDDIYTLQINPDSAVNPEHLSYFHFVGRIMGMAVFHGHYIDGGFTLPFYKQLLGKSITLDDMELVDPDLHNSLVWILENDITGVLDHTFCVEHNAYGEIIQHELKPNGKSIPVTEENKKEYVRLYVNWRFLRGIEAQFLALQKGFNEVIPQHLLKTFDEKELELIICGLGKIDVSDWKVNTRLKHCTPDSNVVKWFWKAVEFFDEERRARLLQFVTGSSRVPLQGFKALQGAAGPRLFTIHQIDACTNNLPKAHTCFNRIDIPPYESYEKLYEKLLTAIEETCGFAVE
B2: E3 ubiquitin-protein ligase SMURF2 (Mus musculus), A2A5Z6 (parent)
chain: B1 chain
partner: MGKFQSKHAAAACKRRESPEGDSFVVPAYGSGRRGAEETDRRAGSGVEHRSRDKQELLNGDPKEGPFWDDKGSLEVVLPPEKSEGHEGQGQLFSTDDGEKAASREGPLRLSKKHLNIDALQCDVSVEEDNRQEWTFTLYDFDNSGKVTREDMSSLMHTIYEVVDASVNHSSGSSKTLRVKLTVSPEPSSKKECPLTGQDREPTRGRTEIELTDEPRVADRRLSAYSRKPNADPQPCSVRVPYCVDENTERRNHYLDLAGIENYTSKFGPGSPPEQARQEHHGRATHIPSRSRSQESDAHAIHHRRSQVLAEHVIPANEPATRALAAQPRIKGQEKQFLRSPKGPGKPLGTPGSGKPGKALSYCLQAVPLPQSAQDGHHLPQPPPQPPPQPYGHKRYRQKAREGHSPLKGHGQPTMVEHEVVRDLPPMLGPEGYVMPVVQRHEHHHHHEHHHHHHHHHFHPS
B3: E3 ubiquitin-protein ligase SMURF2 (Mus musculus), A2A5Z6 (parent)
chain: B1 chain
partner: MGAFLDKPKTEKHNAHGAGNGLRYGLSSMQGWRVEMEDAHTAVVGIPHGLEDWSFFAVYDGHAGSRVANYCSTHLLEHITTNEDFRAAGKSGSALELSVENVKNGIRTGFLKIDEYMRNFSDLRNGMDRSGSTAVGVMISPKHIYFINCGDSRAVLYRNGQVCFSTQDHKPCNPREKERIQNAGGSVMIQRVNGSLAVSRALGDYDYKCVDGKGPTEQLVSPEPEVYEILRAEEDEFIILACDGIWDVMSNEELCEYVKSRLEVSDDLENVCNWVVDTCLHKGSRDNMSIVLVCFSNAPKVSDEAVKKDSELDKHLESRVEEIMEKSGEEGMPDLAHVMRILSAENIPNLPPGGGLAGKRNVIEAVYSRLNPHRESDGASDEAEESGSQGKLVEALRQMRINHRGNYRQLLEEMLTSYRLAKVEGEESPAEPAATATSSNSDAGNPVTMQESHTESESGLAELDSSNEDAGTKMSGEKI
B4: Segment polarity protein dishevelled homolog DVL-2 (Homo sapiens), O14641 (parent)
chain: MAGSSTGGGGVGETKVIYHLDEEETPYLVKIPVPAERITLGDFKSVLQRPAGAKYFFKSMDQDFGVVKEEISDDNARLPCFNGRVVSWLVSSDNPQPEMAPPVHEPRAELAPPAPPLPPLPPERTSGIGDSRPPSFHPNVSSSHENLEPETETESVVSLRRERPRRRDSSEHGAGGHRTGGPSRLERHLAGYESSSTLMTSELESTSLGDSDEEDTMSRFSSSTEQSSASRLLKRHRRRRKQRPPRLERTSSFSSVTDSTMSLNIITVTLNMEKYNFLGISIVGQSNERGDGGIYIGSIMKGGAVAADGRIEPGDMLLQVNDMNFENMSNDDAVRVLRDIVHKPGPIVLTVAKCWDPSPQAYFTLPRNEPIQPIDPAAWVSHSAALTGTFPAYPGSSSMSTITSGSSLPDGCEGRGLSVHTDMASVTKAMAAPESGLEVRDRMWLKITIPNAFLGSDVVDWLYHHVEGFPERREARKYASGLLKAGLIRHTVNKITFSEQCYYVFGDLSGGCESYLVNLSLNDNDGSSGASDQDTLAPLPGATPWPLLPTFSYQYPAPHPYSPQPPPYHELSSYTYGGGSASSQHSEGSRSSGSTRSDGGAGRTGRPEERAPESKSGSGSESEPSSRGGSLRRGGEASGTSDGGPPPSRGSTGGAPNLRAHPGLHPYGPPPGMALPYNPMMVVMMPPPPPPVPPAVQPPGAPPVRDLGSVPPELTASRQSFHMAMGNPSEFFVDVM
B5: E3 ubiquitin-protein ligase SMURF2 (Mus musculus), A2A5Z6 (parent)
chain: B1 chain
partner: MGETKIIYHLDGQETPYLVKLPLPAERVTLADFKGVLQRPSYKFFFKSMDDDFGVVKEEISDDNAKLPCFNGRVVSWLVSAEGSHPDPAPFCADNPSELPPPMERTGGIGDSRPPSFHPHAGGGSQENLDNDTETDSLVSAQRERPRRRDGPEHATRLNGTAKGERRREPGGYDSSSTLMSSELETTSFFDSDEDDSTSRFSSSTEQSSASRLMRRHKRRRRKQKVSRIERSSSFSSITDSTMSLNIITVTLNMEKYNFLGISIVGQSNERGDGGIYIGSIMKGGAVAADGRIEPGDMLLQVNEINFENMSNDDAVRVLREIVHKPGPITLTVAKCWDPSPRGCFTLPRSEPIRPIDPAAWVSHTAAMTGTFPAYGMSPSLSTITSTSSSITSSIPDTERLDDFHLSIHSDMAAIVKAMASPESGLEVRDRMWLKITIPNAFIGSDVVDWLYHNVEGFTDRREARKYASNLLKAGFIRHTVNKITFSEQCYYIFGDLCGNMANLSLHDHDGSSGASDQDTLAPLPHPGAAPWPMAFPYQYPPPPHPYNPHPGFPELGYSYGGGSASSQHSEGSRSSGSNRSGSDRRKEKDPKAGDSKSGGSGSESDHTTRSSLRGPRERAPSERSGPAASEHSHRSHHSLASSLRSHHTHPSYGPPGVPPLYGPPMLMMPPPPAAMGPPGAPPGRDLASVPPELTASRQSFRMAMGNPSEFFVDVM
B6: E3 ubiquitin-protein ligase SMURF2 (Mus musculus), A2A5Z6 (parent)
chain: B1 chain
partner: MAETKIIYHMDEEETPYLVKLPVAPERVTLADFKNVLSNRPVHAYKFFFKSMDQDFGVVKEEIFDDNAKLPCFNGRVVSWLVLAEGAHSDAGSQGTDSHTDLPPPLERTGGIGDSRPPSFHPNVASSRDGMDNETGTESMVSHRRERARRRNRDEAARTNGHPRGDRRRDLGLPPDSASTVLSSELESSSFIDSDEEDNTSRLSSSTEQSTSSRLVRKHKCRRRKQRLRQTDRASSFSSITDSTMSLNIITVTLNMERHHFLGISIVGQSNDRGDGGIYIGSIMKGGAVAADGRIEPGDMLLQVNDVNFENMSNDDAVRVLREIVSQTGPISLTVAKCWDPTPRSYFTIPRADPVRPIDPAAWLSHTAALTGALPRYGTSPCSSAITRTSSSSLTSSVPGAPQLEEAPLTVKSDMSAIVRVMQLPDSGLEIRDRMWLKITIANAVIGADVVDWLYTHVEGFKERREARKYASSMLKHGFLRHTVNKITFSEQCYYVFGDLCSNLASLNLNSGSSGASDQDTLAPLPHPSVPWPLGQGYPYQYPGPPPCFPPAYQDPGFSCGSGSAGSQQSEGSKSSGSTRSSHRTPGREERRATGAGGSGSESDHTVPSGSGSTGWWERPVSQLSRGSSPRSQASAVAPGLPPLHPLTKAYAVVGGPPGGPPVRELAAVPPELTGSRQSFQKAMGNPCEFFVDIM
B7: E3 ubiquitin-protein ligase SMURF2 (Mus musculus), A2A5Z6 (parent)
chain: B1 chain
partner: B4 chain

Variants of: B1
Conditions: with elav1_human ELAVL1, Q15717
Sequence of elav1_human ELAVL1, Q15717 (Q15717 whole entry): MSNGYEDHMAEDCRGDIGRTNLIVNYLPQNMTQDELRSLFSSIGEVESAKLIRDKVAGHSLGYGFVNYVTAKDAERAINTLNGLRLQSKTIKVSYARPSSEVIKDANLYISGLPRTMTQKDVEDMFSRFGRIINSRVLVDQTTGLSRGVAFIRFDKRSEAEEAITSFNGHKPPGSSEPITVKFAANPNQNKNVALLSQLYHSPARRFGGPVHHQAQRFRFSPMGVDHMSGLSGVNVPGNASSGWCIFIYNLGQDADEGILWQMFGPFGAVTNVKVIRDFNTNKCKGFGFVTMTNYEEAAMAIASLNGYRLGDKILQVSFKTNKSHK

Row | Variant | effect of a mutation on the interaction
1 | C716A | decreasing interaction

Variants of: B1
Conditions: with rac1_mouse Rac1, P63001

Row | Variant | effect of a mutation on the interaction
2 | C716A | decreasing interaction

Variants of: B1
Conditions: with tp53b_mouse Tp53bp1, P70399
Sequence of tp53b_mouse Tp53bp1, P70399 (P70399 whole entry): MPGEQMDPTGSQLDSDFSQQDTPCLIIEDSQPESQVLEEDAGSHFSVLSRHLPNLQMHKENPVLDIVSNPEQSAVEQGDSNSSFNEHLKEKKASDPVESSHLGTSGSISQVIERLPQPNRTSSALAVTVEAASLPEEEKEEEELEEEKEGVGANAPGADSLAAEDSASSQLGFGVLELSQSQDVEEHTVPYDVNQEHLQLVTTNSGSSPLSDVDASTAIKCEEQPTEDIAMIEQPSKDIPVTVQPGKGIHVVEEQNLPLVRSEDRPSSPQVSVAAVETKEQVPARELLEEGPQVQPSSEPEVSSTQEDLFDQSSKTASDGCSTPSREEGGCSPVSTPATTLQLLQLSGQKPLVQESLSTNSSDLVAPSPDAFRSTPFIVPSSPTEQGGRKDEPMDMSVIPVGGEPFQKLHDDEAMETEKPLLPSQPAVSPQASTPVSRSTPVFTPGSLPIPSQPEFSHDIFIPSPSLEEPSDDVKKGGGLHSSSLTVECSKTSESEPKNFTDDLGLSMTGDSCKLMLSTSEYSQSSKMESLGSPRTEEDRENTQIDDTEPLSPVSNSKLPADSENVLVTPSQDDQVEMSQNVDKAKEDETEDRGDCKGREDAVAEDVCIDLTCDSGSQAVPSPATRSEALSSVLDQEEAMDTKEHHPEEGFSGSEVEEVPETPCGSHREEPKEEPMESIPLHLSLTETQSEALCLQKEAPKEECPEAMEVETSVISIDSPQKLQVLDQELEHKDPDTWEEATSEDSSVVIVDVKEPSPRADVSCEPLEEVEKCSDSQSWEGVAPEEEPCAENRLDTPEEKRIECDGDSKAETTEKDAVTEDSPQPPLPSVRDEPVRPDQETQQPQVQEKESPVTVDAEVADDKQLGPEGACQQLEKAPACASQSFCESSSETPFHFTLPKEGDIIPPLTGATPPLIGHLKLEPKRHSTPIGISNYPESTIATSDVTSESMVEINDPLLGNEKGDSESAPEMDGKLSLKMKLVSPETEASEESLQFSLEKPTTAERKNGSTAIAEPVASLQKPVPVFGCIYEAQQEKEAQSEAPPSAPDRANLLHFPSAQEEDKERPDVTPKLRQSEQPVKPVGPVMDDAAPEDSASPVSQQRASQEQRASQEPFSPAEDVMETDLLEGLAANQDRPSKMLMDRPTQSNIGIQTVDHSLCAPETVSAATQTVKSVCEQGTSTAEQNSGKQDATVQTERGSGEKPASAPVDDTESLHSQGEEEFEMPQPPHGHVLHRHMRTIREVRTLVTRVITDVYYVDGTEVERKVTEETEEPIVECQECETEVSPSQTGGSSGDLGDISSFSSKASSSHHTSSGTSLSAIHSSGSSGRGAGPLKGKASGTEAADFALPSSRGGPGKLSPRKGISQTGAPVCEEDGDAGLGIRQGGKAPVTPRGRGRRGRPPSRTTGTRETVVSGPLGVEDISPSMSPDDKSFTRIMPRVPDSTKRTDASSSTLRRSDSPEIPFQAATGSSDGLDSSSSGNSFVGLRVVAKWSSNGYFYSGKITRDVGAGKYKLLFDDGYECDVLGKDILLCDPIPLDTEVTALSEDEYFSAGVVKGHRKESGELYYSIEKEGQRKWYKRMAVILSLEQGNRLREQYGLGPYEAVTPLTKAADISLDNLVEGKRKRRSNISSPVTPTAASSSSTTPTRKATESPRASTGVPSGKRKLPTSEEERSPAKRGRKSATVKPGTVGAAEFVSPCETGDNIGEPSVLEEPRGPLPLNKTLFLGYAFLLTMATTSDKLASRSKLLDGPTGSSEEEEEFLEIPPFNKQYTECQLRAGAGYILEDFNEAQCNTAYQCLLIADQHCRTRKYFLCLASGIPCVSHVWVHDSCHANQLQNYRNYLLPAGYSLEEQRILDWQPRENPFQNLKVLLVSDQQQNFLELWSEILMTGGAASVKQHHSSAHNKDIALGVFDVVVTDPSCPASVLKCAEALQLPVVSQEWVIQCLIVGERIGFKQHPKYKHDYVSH

Row | Variant | effect of a mutation on the interaction
3 | C716A | decreasing interaction

Variants of: B2
Conditions: with nkd2_mouse Nkd2, Q8VE28

Row | Variant | effect of a mutation on the interaction
4 | C716A | decreasing interaction

Variants of: B3
Conditions: with ppm1b_human PPM1B

Row | Variant | effect of a mutation on the interaction
5 | C716A | decreasing interaction

Variants of: B4
Conditions: with smuf2_mouse Smurf2, A2A5Z6

Row | Variant | effect of a mutation on the interaction
6 | E499G | decreasing interaction

Variants of: B4
Conditions: with smuf2_mouse Smurf2, A2A5Z6
Remark: another data set of the same source

Row | Variant | effect of a mutation on the interaction
7 | C501R | decreasing interaction

Variants of: B5
Conditions: with dvl3_human DVL3, Q92997

Row | Variant | effect of a mutation on the interaction
8 | C716A | decreasing interaction

Variants of: B6
Conditions: with dvl1_mouse Dvl1, P51141

Row | Variant | effect of a mutation on the interaction
9 | C716A | decreasing interaction

Variants of: B7
Conditions: with dvl2_human DVL2, O14641

Row | Variant | effect of a mutation on the interaction
10 | C716A | decreasing interaction
